The target in this assay is purified hXRCC1 protein (human, UniProt P18887 1-633). Kind of assay: far-Western, overlay or dot blot.

One molecule from article PMC2691816 (Nucleic Acids Research, 2009) can be followed below.

Sequence of purified hXRCC1 protein (P18887 whole entry): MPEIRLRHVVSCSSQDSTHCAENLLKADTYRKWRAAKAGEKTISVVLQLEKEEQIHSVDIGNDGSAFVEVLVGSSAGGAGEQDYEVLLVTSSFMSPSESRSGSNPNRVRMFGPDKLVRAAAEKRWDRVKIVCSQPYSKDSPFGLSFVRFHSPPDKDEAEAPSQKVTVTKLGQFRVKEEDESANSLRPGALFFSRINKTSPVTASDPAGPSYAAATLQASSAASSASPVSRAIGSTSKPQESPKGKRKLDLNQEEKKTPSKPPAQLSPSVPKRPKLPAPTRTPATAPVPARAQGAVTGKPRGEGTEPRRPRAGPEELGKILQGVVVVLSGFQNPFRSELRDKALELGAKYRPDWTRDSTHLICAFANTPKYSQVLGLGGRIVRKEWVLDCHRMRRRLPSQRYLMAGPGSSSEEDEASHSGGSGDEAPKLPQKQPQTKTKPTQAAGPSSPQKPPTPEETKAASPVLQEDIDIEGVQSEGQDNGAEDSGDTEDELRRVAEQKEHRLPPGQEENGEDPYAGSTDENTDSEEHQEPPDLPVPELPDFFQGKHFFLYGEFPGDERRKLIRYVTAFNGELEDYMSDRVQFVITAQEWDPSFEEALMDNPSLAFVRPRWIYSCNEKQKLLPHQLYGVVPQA

B1: His-tagged p58 N-terminal domain (amino acids 1–266) (domain or fragment, human, UniProt P49643 1-266, looked up)
chain: MEFSGRKWRKLRLAGDQRNASYPHCLQFYLQPPSENISLIEFENLAIDRVKLLKSVENLGVSYVKGTEQYQSKLESELRKLKFSYRENLEDEYEPRRRDHISHFILRLAYCQSEELRRWFIQQEMDLLRFRFSILPKDKIQDFLKDSQLQFEAISDEEKTLREQEIVASSPSLSGLKLGFESIYKIPFADALDLFRGRKVYLEDGFAYVPLKDIVAIILNEFRAKLSKALALTARSLPAVQSDERLQPLLNHLSHSYTGQDYSTQG
As for B1, the binding result is given as “binds”.
